Assay results reported in PMC3242506 (Biochemical Journal, 2011).

Legend:
cross-linking [1] = biological target: the molecule itself; assay: cross-linking
[2] = biological target: the molecule itself; assay: SDS/PAGE and Western blot without cross-linker
cross-linking [3] = biological target: the molecule itself; assay: cross-linking; remark: listed apart in the source

Row | Protein | stoichiometry N (cross-linking [1]) | stoichiometry N [2] | stoichiometry N (cross-linking [3])
1 | domain I of human TPC1 (TPC1^1–347) (domain or fragment) not shown | 2.1 |  | 
2 | domain II of human TPC1 (TPC1^427–816) (domain or fragment, N-glycosylated (bands sensitive to PNGase F)) not shown | 2.2 | 2 | 
3 | domain I of human TPC2 (TPC2^1–339) (domain or fragment, UniProt Q8NHX9 1-339, looked up) MAEPQAESEPLLGGARGGGGDWPAGLTTYRSIQVGPGAAARWDLCIDQAVVFIEDAIQYRSINHRVDASSMWLYRRYYSNVCQRTLSFTIFLILFLAFIETPSSLTSTADVRYRAAPWEPPCGLTESVEVLCLLVFAADLSVKGYLFGWAHFQKNLWLLGYLVVLVVSLVDWTVSLSLVCHEPLRIRRLLRPFFLLQNSSMMKKTLKCIRWSLPEMASVGLLLAIHLCLFTMFGMLLFAGGKQDDGQDRERLTYFQNLPESLTSLLVLLTTANNPDVMIPAYSKNRAYAIFFIVFTVIGSLFLMNLLTAIIYSQFRGYLMKSLQTSLFRRRLGTRAAFE | 2.3 | 2 | 
4 | domain II of human TPC2 (TPC2^422–752) (domain or fragment, UniProt Q8NHX9 422-752, looked up) LQSAQFLFGHYYFDYLGNLIALANLVSICVFLVLDADVLPAERDDFILGILNCVFIVYYLLEMLLKVFALGLRGYLSYPSNVFDGLLTVVLLVLEISTLAVYRLPHPGWRPEMVGLLSLWDMTRMLNMLIVFRFLRIIPSMKLMAVVASTVLGLVQNMRAFGGILVVVYYVFAIIGINLFRGVIVALPGNSSLAPANGSAPCGSFEQLEYWANNFDDFAAALVTLWNLMVVNNWQVFLDAYRRYSGPWSKIYFVLWWLVSSVIWVNLFLALILENFLHKWDPRSHLQPLAGTPEATYQMTVELLFRDILEEPGEDELTERLSQHPHLWLCR | 2.2 |  | 
5 | first four TM regions of human TPC1 (TPC1^1–225) (domain or fragment) not shown |  |  | 2
